Experimental data reported in patent publication US20040087497.

How the values were obtained:
Suc-βAla-Ile-Ala-Leu-Dox = tested on: T1, Suc-βAla-Ile-Ala-Leu-Dox
T1 sequence: XIAX

Suc-Ile-Ala-Leu-Dox = tested on: T2, Suc-Ile-Ala-Leu-Dox
T2 sequence: XAX

Suc-Leu-Ala-Leu-Dox = tested on: T3, Suc-Leu-Ala-Leu-Dox
T3 sequence: XAX

Suc-βAla-Leu-Ala-Leu-Dox = tested on: T4, Suc-βAla-Leu-Ala-Leu-Dox
T4 sequence: XLAX

Suc-Leu-Ala-Gly-Dox = tested on: T5, Suc-Leu-Ala-Gly-Dox
T5 sequence: XAX

Suc-βAla-Leu-Tyr-Leu-Dox = tested on: T6, Suc-βAla-Leu-Tyr-Leu-Dox
T6 sequence: XLYX

Suc-Met-Ala-Leu-Dox = tested on: T7, Suc-Met-Ala-Leu-Dox
T7 sequence: XAX

Suc-βAla-Leu-Ala-Leu-pNA = tested on: T8, Suc-βAla-Leu-Ala-Leu-pNA
T8 sequence: XLAX

Suc-Leu-Tyr-Leu-Dox = tested on: T9, Suc-Leu-Tyr-Leu-Dox
T9 sequence: XYX

[1] = scale: fraction relative to Suc-βAla-Leu-Ala-Leu-Dox

Substance: thimet oligopeptidase
- Cleavage by thimet oligopeptidase (Suc-βAla-Ile-Ala-Leu-Dox): -
- Cleavage by thimet oligopeptidase (Suc-Ile-Ala-Leu-Dox): -
- Cleavage by thimet oligopeptidase (Suc-Leu-Ala-Leu-Dox): +
- Cleavage by thimet oligopeptidase (Suc-βAla-Leu-Ala-Leu-Dox): +
- Cleavage by thimet oligopeptidase (Suc-Leu-Ala-Gly-Dox): +

Substance: purified Porcine Kidney CD10 (Elastin Products Company)
- % hydrolysis/10 hr (% hydrolysis/10 hr) (Suc-βAla-Leu-Tyr-Leu-Dox): 0
- Fraction hydrolyzed relative to standard (Suc-βAla-Leu-Tyr-Leu-Dox; [1]): 0
- % hydrolysis/10 hr (% hydrolysis/10 hr) (Suc-Met-Ala-Leu-Dox): 37.7
- Fraction hydrolyzed relative to standard (Suc-Met-Ala-Leu-Dox; [1]): 3.5
- % hydrolysis/10 hr (% hydrolysis/10 hr) (Suc-βAla-Ile-Ala-Leu-Dox): 22.1
- Cleaved by CD10 (Suc-βAla-Ile-Ala-Leu-Dox): +
- Fraction hydrolyzed relative to standard (Suc-βAla-Ile-Ala-Leu-Dox; [1]): 2
- % hydrolysis/10 hr (% hydrolysis/10 hr) (Suc-Ile-Ala-Leu-Dox): 12.5
- Cleaved by CD10 (Suc-Ile-Ala-Leu-Dox): +
- Fraction hydrolyzed relative to standard (Suc-Ile-Ala-Leu-Dox; [1]): 1.1
- % hydrolysis/10 hr (% hydrolysis/10 hr) (Suc-Leu-Ala-Leu-Dox): 8.3
- Cleaved by CD10 (Suc-Leu-Ala-Leu-Dox): +
- Fraction hydrolyzed relative to standard (Suc-Leu-Ala-Leu-Dox; [1]): 0.75
- rate of cleavage (release of Leu-pNA) relative to Suc-βAla-Leu-Ala-Leu-Dox (release of Leu-Dox) (Suc-βAla-Leu-Ala-Leu-pNA): 590 times more rapidly cleaved
- % hydrolysis/10 hr (% hydrolysis/10 hr) (Suc-Leu-Tyr-Leu-Dox): 0
- Fraction hydrolyzed relative to standard (Suc-Leu-Tyr-Leu-Dox; [1]): 0
- % hydrolysis/10 hr (% hydrolysis/10 hr) (Suc-βAla-Leu-Ala-Leu-Dox): 10.9
- Cleaved by CD10 (Suc-βAla-Leu-Ala-Leu-Dox): +
- Fraction hydrolyzed relative to standard (Suc-βAla-Leu-Ala-Leu-Dox; [1]): 1
- % hydrolysis/10 hr (% hydrolysis/10 hr) (Suc-Leu-Ala-Gly-Dox): 0
- Cleaved by CD10 (Suc-Leu-Ala-Gly-Dox): -
- Fraction hydrolyzed relative to standard (Suc-Leu-Ala-Gly-Dox; [1]): 0
